Experimental data: patent publication US20040202665A1, “Compositions and methods for therapeutic treatment” (priority 2002, published 2004)

B1: Y1: human scFv antibody fragment of SEQ ID NO: 1, selected from a phage library on fixed human platelets (protein, listed as Homo sapiens)
scFv: MKYLLPTAAAGLLLLAAQPAMAEVQLVESGGGVVRPGGSLRLSCAASGFSFDDYGMSWVRQAPGKGLEWVSGINWNGGSTGYADSVKGRFTISRDNAKNSLYLQMNSLRAEDTAVYYCARMRAPVIWGQGTLVTVSRGGGGSGGGGSGGGGSSELTQDPAVSVALGQTVRITCQGDSLRSYYASWYQQKPGQAPVLVIYGKNNRPSGIPDRFSGSSSGNTASLTITGAQAEDEADYYCNSRDSSGNHVVFGGGTKLTVLGAAAEQKLISEEDLNGAA
B2: L32: scFv antibody fragment of SEQ ID NO:3, screened against a leukemia cell (protein, listed as Homo sapiens)
scFv: MKYLLPTAAAGLLLLAAQPAMAEVQLVESGGGVVRPGGSLRLSCAASGFTFDLNPKVKHMWVRQAPGKGLEWVSGINWNGGSTGYADSVKGRFTISRDNAKNSLYLQMNSERAEDTAVYYCARMRAPVIWGQGTLVTVSRGGGGSGGGGSGGGGSSELTQDPAVSVALGQTVRITCQGDSLRSYYASWYQQKPGQAPVLVIYGKNNRPSGIPDRFSGSSSGNTASLTITGAQAEDEADYYCNSRDSSGNHVVFGGGTKLTVLGAAAEQKLISEEDLNGAA

Legend:
[1] = system: MOLT-4 (T leukemia) cells; test: Survival of MOLT-4 tumor-bearing mice after doxorubicin and Y1; format: in vivo; details: MOLT-4 tumor-bearing SCID mice; for survival of tumor-bearing mice (FIG. 1): 2 mg Dox/kg i.v. 1x/wk and/or 0.1 mg Y1 scFv/mouse i.v. 3x/wk, relative to control
Protocol: The present example examines the interaction between chemotherapy treatment and Y1 in the MOLT-4 tumor-bearing mice.
Initially, SCID mice (Jackson) were pretreated with 100 mg/kg CTX (Cytoxan-cyclophosphamid for injection, Mead Johnson). Five days after CTX injection, MOLT-4 (T leukemia) cells were inoculated intravenously (i.v.) through the tail vein with 2×10^7 cells. Mice were randomly divided into 5 treatment groups (13 per group), and they were treated, beginning 5 days after cell inoculation, as indicated in the table below. Tumor-bearing mice were treated for two weeks with sub-optimal dose of doxorubicin (Dox), in combination with Y1 given either concomitantly or after the Dox course of treatment. The response to the therapies was monitored as survival. As described above, the experimental groups were as follows: […]

[2] = system: primary leukemia cells derived from either AML or multiple myeloma (MM) patients; test: Affinity of Y1 to primary leukemia cells; format: binding
leukemic cells = test: Binding to leukemic cells
platelets [3] = test: Binding to platelets
platelets [4] = test: Platelet aggregation; format: cell-based

Molecule | survival of tumor-bearing mice (FIG. 1) [1] | mean survival time (MST) ([1]; sub-optimal dose 2 mg Dox/kg i.v., 2 doses, 1x/wk, beginning day 5 post inoculation, control 39.08±0.8 days) [days] | affinity to primary leukemia cells relative to glycocalicin, fibrinogen-gamma prime, complement compound 4 and PSGL-1 epitopes [2] | affinity of binding to leukemic cells relative to Y1 (leukemic cells) | binding to platelets (platelets [3]) | effect on platelet aggregation (platelets [4])
COc1cccc2c1C(=O)c1c(O)c3c(c(O)c1C2=O)C[C@@](O)(C(=O)CO)C[C@@H]3O[C@H]1C[C@H](N)[C@H](O)[C@H](C)O1 [Dox, doxorubicin] | negative effect | 33.5 ± 1.68 |  |  |  | 
B1 | dramatic effect |  | several magnitudes higher |  |  | 
B2 |  |  |  | approximately five times greater affinity than Y1 | does not bind platelets | does not affect platelet aggregation
